# Results reported in patent US20230220098A1, “THERAPEUTIC DRUG FOR POLYCYTHEMIA” (PERSEUS PROTEOMICS INC., priority 2019, published 2023).
# B1: TfR436: anti-human transferrin receptor antibody, VH SEQ ID NO: 7 and VL SEQ ID NO: 8, described in WO2014/073641; called PPMX-T003 in Tables 3 and 4 (antibody, listed as Homo sapiens, V domains shown)
# VH: DVQLVQSGGGVVQPGRSLRLSCAASGFPFKSYGMHWVRQAPGKGLEWVAVISYDGSNKYYADSVKGRFTISRDNSKNTLYLQMNSLRGEDTAVYYCARDSNFWSGYYSPVDVWGQGTTVTVSS
# VL: NFMLTQPHSVSESPGKTVTISCTRSSGSIASNSVQWYQQRPGSAPITVIYEDTQRPSGVPDRFSGSIDSSSNSASLTISGLQTEDEADYYCQSYDSAYHWVFGGGTKLAVL
# Tests used:
# mouse TfR = mouse TfR (Mus musculus, UniProt Q62351); assay: Cross-reactivity of TfR436 antibody with mouse TfR; type: binding
# Sequence of mouse TfR (Q62351 whole entry): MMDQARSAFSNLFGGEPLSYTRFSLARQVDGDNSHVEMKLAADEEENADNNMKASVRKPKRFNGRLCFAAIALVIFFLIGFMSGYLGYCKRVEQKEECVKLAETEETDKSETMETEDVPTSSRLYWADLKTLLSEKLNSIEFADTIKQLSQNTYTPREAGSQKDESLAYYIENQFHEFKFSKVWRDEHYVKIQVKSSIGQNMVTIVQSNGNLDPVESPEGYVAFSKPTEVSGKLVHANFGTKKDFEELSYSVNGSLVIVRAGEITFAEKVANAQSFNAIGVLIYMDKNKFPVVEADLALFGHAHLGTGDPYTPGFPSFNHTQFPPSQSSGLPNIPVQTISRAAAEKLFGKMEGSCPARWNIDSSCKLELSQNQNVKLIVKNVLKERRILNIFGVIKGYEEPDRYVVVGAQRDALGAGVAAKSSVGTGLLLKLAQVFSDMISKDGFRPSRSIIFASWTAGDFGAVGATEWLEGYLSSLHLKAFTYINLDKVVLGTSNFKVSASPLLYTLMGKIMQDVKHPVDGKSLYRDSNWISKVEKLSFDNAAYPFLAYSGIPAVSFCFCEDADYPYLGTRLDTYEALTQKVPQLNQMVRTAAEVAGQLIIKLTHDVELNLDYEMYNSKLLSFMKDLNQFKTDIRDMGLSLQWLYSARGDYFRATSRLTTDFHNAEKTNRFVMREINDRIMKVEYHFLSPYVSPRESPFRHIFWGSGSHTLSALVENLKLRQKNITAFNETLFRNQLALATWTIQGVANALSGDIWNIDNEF
# Tf-TfR binding = molecular target: T1, Tf-TfR binding (Homo sapiens, UniProt P02786); assay: Tf-TfR binding inhibition ELISA (HRP-labeled Tf on solid-phase sTfR); conditions: dose 100 ng/mL; FIG. 3
# T1 construct: A human TfR extracellular domain (the amino acids at positions 89 to 760); made in house; host or cells: Expi293 cells
# T1 sequence (P02786 89-760): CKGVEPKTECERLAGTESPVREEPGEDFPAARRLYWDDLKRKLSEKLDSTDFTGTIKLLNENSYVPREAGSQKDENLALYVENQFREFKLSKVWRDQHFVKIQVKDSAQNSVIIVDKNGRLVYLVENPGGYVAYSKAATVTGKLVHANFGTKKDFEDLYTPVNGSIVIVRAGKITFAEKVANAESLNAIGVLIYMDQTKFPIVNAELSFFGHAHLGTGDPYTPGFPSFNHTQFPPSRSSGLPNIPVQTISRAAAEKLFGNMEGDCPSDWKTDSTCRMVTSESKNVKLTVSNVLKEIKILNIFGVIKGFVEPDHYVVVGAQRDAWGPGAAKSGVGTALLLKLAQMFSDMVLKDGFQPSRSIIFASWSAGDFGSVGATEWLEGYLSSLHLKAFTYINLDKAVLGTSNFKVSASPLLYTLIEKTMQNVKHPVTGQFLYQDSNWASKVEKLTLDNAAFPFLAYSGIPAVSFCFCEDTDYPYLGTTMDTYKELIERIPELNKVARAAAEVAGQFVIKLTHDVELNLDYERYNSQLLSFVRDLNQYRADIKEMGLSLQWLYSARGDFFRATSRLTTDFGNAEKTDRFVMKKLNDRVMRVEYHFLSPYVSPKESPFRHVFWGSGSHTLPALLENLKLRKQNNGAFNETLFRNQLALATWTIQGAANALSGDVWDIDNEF
# Experimental: The Tf-TfR binding inhibitory activity of an antibody can be measured according to the method described in the after-mentioned “Example 2(2): Comparison between TfR436 antibody and antibodies of other companies in terms of Tf-TfR binding inhibition.” A TfR solution is dispensed into a substrate (a 96-well plate, etc.) and is then left at rest to obtain a solid phase, and thereafter, blocking is carried out. Subsequently, an HRP-labeled Tf solution is dispensed into the substrate, and an antibody is further added thereto, so that they are allowed to react with each other at room temperature. Thereafter, the substrate is washed, and a coloring reagent (TMB, etc.) is then added thereto, so that they are allowed to react with each other. After that, the absorbance is measured using a plate reader. By performing the above-described operations, the Tf-TfR binding inhibitory activity of the antibody can be evaluated.
# The sTfR described in Example 1 was adjusted to a concentration of 5.0 μg/mL by addition of PBST, and the diluted solution was then dispensed into MaxiSorp 96-well plate (Nunc) in an amount of 100 μL/well. Thereafter, it was left at rest at 4° C. overnight to obtain a solid phase. […] Thereafter, the absorbance at 450 nm (ref. 620 nm) was measured.
# [1] = test system: PV patient-derived hematopoietic stem cells; assay: EPO-independent erythroblast (BFU-E/CFU-E) colony assay; type: cell-based, human
# Experimental: PV patient-derived hematopoietic stem cells are characterized in that BFU-E or CFU-E is formed in the cells even in the absence of erythropoietin (EPO). The activity of TfR436 to inhibit the formation of these colonies was examined.
# The peripheral blood of a PV patient, which had been obtained by phlebotomy, was dispensed into three 50-mL centrifuge tubes in an amount of 20 mL each, and an equal amount of PBS (Gibco) was then added to each tube, followed by mixing. Thereafter, 15 mL of LymphoSep, Lymphocyte Separation Media (MP Biomedicals™) was dispensed into […] novel 50-mL centrifuge tubes, and the peripheral blood diluted with PBS was then slowly added thereto in an amount of 30 mL each, and the obtained mixture was then centrifuged at 1,500 rpm at room temperature for 30 minutes. After completion of the centrifugation, the plasma as a supernatant was removed, and a PBMC layer was collected by transfer pipetting. The collected PBMC layer was suspended in 20 mL of PBS+2% FBS (Gibco). The thus obtained suspension was further centrifuged at 1350 rpm at room temperature for 10 minutes, a supernatant was then removed, and the residue was then suspended in 1 to 5 mL of IMDM (Nacalai Tesque)+2% FBS. Using 0.2% Trypan Blue, the number of cells was counted, and the cells were adjusted to 2×10^6 cells/mL by addition of IMDM+2% FBS.
# TfR436 and a human IgG1 antibody used as a negative control were each diluted with IMDM+2% FBS to an antibody concentration of […]. MethoCult™ H4534 Classic WithoutEPO (STEMCELL TECHNOLOGIES) was dispensed into seven 14-mL round bottle tubes in an amount of 3 mL each, and 300 jut of the above-prepared PBMC was then added thereto. Thereafter, an antibody-diluted solution or 3.3 μL of IMDM+2% FBS (control) was further added thereto, followed by full mixing. Thereafter, the reaction mixture was seeded on two 35-mm culture dishes in an amount of 1 mL each. This mixture was cultured at 37° C. in a 5% CO2 incubator for 14 days. After completion of the culture, the 35-mm culture dishes were observed under a microscope, and the number of the formed BFU-E or CFU-E colonies was then counted. The colony formation percentage with respect to the number of colonies obtained by a culture without addition of antibodies was then calculated.
molecule,measurement,setting,value
B1,cross-reactivity with mouse TfR,mouse TfR,did not cross-react
same,inhibition of the binding of Tf-TfR,Tf-TfR binding,completely inhibited
same,formation of erythroblast colonies,"[1]; 100 ng/mL or more, 14 days, without EPO",almost completely inhibited
same,colony formation percentage with respect to culture without addition of antibodies,"[1]; pt No. 1, 10 ng/mL",87.1%
same,colony formation percentage with respect to culture without addition of antibodies,"[1]; pt No. 1, 100 ng/mL",0.0%
same,colony formation percentage with respect to culture without addition of antibodies,"[1]; pt No. 1, 1000 ng/mL",0.0%
same,colony formation percentage with respect to culture without addition of antibodies,"[1]; pt No. 2, 10 ng/mL",149.0%
same,colony formation percentage with respect to culture without addition of antibodies,"[1]; pt No. 2, 100 ng/mL",2.1%
same,colony formation percentage with respect to culture without addition of antibodies,"[1]; pt No. 2, 1000 ng/mL",0.0%
same,colony formation percentage with respect to culture without addition of antibodies,"[1]; pt No. 3, 10 ng/mL",91.7%
same,colony formation percentage with respect to culture without addition of antibodies,"[1]; pt No. 3, 100 ng/mL",0.0%
same,colony formation percentage with respect to culture without addition of antibodies,"[1]; pt No. 3, 1000 ng/mL",0.0%
same,colony formation percentage with respect to culture without addition of antibodies,"[1]; pt No. 7, 10 ng/mL",63.6%
same,colony formation percentage with respect to culture without addition of antibodies,"[1]; pt No. 7, 100 ng/mL",0.0%
same,colony formation percentage with respect to culture without addition of antibodies,"[1]; pt No. 7, 1000 ng/mL",0.0%
same,colony formation percentage with respect to culture without addition of antibodies,"[1]; pt No. 9, 10 ng/mL",63.3%
same,colony formation percentage with respect to culture without addition of antibodies,"[1]; pt No. 9, 100 ng/mL",0.0%
same,colony formation percentage with respect to culture without addition of antibodies,"[1]; pt No. 9, 1000 ng/mL",1.0%
same,colony formation percentage with respect to culture without addition of antibodies,"[1]; pt No. 11, 10 ng/mL",80.8%
same,colony formation percentage with respect to culture without addition of antibodies,"[1]; pt No. 11, 100 ng/mL",0.0%
same,colony formation percentage with respect to culture without addition of antibodies,"[1]; pt No. 11, 1000 ng/mL",0.0%
same,colony formation percentage with respect to culture without addition of antibodies,"[1]; pt No. 13, 10 ng/mL",35.2%
same,colony formation percentage with respect to culture without addition of antibodies,"[1]; pt No. 13, 100 ng/mL",23.9%
same,colony formation percentage with respect to culture without addition of antibodies,"[1]; pt No. 13, 1000 ng/mL",19.7%
same,colony formation percentage with respect to culture without addition of antibodies,"[1]; pt No. 14, 10 ng/mL",68.9%
same,colony formation percentage with respect to culture without addition of antibodies,"[1]; pt No. 14, 100 ng/mL",0.0%
same,colony formation percentage with respect to culture without addition of antibodies,"[1]; pt No. 14, 1000 ng/mL",0.0%
same,colony formation percentage with respect to culture without addition of antibodies,"[1]; pt No. 15, 10 ng/mL",6.7%
same,colony formation percentage with respect to culture without addition of antibodies,"[1]; pt No. 15, 100 ng/mL",0.0%
same,colony formation percentage with respect to culture without addition of antibodies,"[1]; pt No. 15, 1000 ng/mL",3.3%
same,colony formation percentage with respect to culture without addition of antibodies,"[1]; pt No. 18, 10 ng/mL",47.6%
same,colony formation percentage with respect to culture without addition of antibodies,"[1]; pt No. 18, 100 ng/mL",0.0%
same,colony formation percentage with respect to culture without addition of antibodies,"[1]; pt No. 18, 1000 ng/mL",0.0%
same,colony formation percentage with respect to culture without addition of antibodies,"[1]; pt No. 20, 10 ng/mL",143.8%
same,colony formation percentage with respect to culture without addition of antibodies,"[1]; pt No. 20, 100 ng/mL",0.0%
same,colony formation percentage with respect to culture without addition of antibodies,"[1]; pt No. 20, 1000 ng/mL",0.0%
